In publication PMC10776578, “Epstein-Barr virus-driven B cell lymphoma mediated by a direct LMP1-TRAF6 complex” (Nature Communications, 2024):
Positions count from the first letter of the chain named. Names and notes keep the numbering of the source.

Assays:
[1] = test system: IκBα in TRAF6^-/- MEFs expressing NGFR-LMP1; test: IκBα degradation (canonical NF-κB) upon NGFR-LMP1 crosslinking; format: cell-based, mouse; conditions: IκBα immunoblot
Text: Wild-type MEFs and derivatives thereof, TRAF6^-/- MEFs[79], and HeLa cells (obtained from the German Collection of Microorganisms and Cell Cultures, GCMC) were kept in Dulbecco’s modified Eagle’s medium (DMEM, Thermo Fischer, #41966-029). The cell lines HEK293 (obtained from GCMC), HA-LCL3[31], LCL721[80], BL41[81], LCL.NGFR-LMP1[35], and the mouse lymphomas LMP1-CL 37 and 40 were kept in Roswell Park Memorial Institute medium (RPMI 1640, Thermo Fisher, #21875-034). If not indicated otherwise, DMEM and RMPI were supplemented with 10% of fetal bovine serum (FBS; Sigma, #F7524), 1 mM L-glutamine (Thermo Fisher, #25030-024) and antibiotics (50 U per mL penicilline and 50 µg per mL streptomycin). LCL.NGFR-LMP1 cells were additionally supplemented with 100 nM sodium selenite and crosslinking primary and secondary antibodies (see below). All cells were kept at 37 °C in the presence of 5% CO2. Retroviral transduction of MEFs with NGFR-LMP1 and TRAF6 was carried out with the vectors pSF91-NGFR-LMP1-IRES-GFP-WPRE and pSF91-Flag-TRAF6-IRES-CFP-WPRE expressing TRAF6 wild-type or the indicated TRAF6 mutants. For NGFR-LMP1 crosslinking, 1 µg per mL of α-NGFR primary antibody (clone HB8737, ATTC) was added for 1 h to the cells. signalling was activated by further addition of 10 µg per mL of α-mouse IgG/IgM secondary antibody (Dianova, #115-005-068) for the given time points.
Immunoblotting was essentially performed as described. Proteins were detected on nitrocellulose membranes (Bio-Rad, #1620115) using the following primary antibodies: α−6*His-tag (clone 4A4 or 2F12, source: antibody facility of the Helmholtz Center Munich, hybridoma supernatants were used at a 1:10 dilution)[75], α-TRAF6 (H-274, Santa Cruz Biotech., #sc-7221, used at 1:1000), α-HA-tag (12CA5, Sigma-Aldrich, #11583816001, used at 0.4 µg per mL), α-IκBα (C-21, Santa Cruz Biotech., #sc-371, used at 1:500) and α-Tubulin (B-5-1-2, Santa Cruz Biotech., #sc-23948, used at 1:500). […] ECL signals were captured on X-ray films (Agfa Healthcare) and quantified by densitometry using the ImageJ software. […]

GST-LMP1_181-386 = test: AlphaScreen PPI, TRAF6 mutants binding to LMP1; parameters: species or system Epstein-Barr virus; TRAF6 binding to LMP1 (AlphaScreen), mean: unit not given here; conditions: for effect of TRAF6 mutation on binding to LMP1 (in words): AlphaScreen PPI; for TRAF6 binding to LMP1 (AlphaScreen), mean / TRAF6 binding to LMP1 (AlphaScreen): Figure 2a; for TRAF6 binding to LMP1 (AlphaScreen), mean: mean of n = 3
Protocol: (§1) Fig. 2 LMP1 binds to the receptor-interacting surface of TRAF6. a Mutations within the receptor-interacting surface of TRAF6 affect binding to LMP1. The TRAF6 mutants R392A, K469A, F471A, and Y473A were tested LMP1 in AlphaScreen PPI experiments with GST-LMP1_181-386. Data are mean values ± SD of three independent experiments. Statistics: one-way ANOVA. b TRAF6 R392A differentiates between CD40 and LMP1/RANK. AlphaScreen PPI experiments with GST-CD40_216-277. Data are mean values ± SD of three independent experiments. […] AlphaScreen PPI experiments with GST-RANK314-355. Data are mean values ± SD of four independent experiments. Statistics: one-way ANOVA. d TRAF6 mutants that fail to interact with LMP1 in PPI assays are also unable to bind cellular LMP1. HEK293 cells were co-transfected with HA-LMP1 and the indicated Flag-TRAF6 mutants. Flag-TRAF6 was immunoprecipitated (IP) via its Flag-tag and coprecipitated HA-LMP1 was detected on immunoblots by an α-HA antibody. Uncropped blots in Supplementary Fig. 6b. For statistical analysis LMP1 signals were digitalized and quantified (graph). Data are mean values ± SD of three independent experiments. […] TRAF6 recruitment is dependent on amino acids 371 − 386 of LMP1 (small panel). Confocal microscopy images show representative cells of three independent experiments. Quantitative data are mean values ± SD of ten randomly selected cells per transfection of one representative experiment (graph). Scale bars: 10 µm. Statistics: one-way ANOVA. p-values: *p ≤ 0.05, **p ≤ 0.01, ***p ≤ 0.001, ****p ≤ 0.0001. Source data and exact p-values in the Source Data file.
(§2) AlphaScreen experiments were performed in 96- or 384-well plates (Perkin Elmer, OptiPlate). In both assay formats, His-TRAF and GST-LMP1, GST-CD40, or GST-RANK proteins were incubated together in 40 µL of PBS (protein concentrations were calculated to the final reaction volume of 60 µL) supplemented with 0.5% BSA (Sigma, #A7030) and 0.1% Tween-20 (AppliChem, #A4974), for 1 h at room temperature (RT). If not indicated otherwise, standard protein concentrations were 300 nM for His-TRAF proteins and 100 nM for GST-LMP1 proteins. Ni-NTA-acceptor (Perkin Elmer, #6760619 C) and GST-acceptor (Perkin Elmer, # 6765300) beads were added each to a final concentration of 1–4 µg per mL in a final reaction volume of 60 µL and incubated for 1 h at RT in the dark. AlphaScreen PPI signals were measured in a CLARIOstar reader (BMG Labtech GmbH).

GST-CD40_216-277 = test: AlphaScreen PPI, TRAF6 mutants binding to CD40; parameters: species or system human; TRAF6 binding to CD40 (AlphaScreen), mean: unit not given here; conditions: for effect of TRAF6 mutation on binding to CD40 (in words): AlphaScreen PPI; for TRAF6 binding to CD40 (AlphaScreen), mean / TRAF6 binding to CD40 (AlphaScreen): Figure 2b; for TRAF6 binding to CD40 (AlphaScreen), mean: mean of n = 3
Protocol: as §1, §2

[2] = relative to mean wt 100, replicate 1

B1: R392A (protein, UniProt Q9Y4K3 1-522, looked up, variant R392A)
TNF receptor-associated …: MSLLNCENSCGSSQSESDCCVAMASSCSAVTKDDSVGGTASTGNLSSSFMEEIQGYDVEFDPPLESKYECPICLMALREAVQTPCGHRFCKACIIKSIRDAGHKCPVDNEILLENQLFPDNFAKREILSLMVKCPNEGCLHKMELRHLEDHQAHCEFALMDCPQCQRPFQKFHINIHILKDCPRRQVSCDNCAASMAFEDKEIHDQNCPLANVICEYCNTILIREQMPNHYDLDCPTAPIPCTFSTFGCHEKMQRNHLARHLQENTQSHMRMLAQAVHSLSVIPDSGYISEVRNFQETIHQLEGRLVRQDHQIRELTAKMETQSMYVSELKRTIRTLEDKVAEIEAQQCNGIYIWKIGNFGMHLKCQEEEKPVVIHSPGFYTGKPGYKLCMALHLQLPTAQRCANYISLFVHTMQGEYDSHLPWPFQGTIRLTILDQSEAPVRQNHEEIMDAKPELLAFQRPTIPRNPKGFGYVTFMHLEALRQRTFIKDDTLLVRCEVSTRFDMGSLRREGFQPRSTDAGV
For B1, the “rescue of canonical NF-κB activation by NGFR-LMP1 (in words)” value (shortened to “rescue of canonical NF-κB activation”) [1] was “ineffective in rescuing canonical NF-κB activation”, the “effect of TRAF6 mutation on binding to LMP1 (in words)” value (from here on “effect … to LMP1 (in words)”) (GST-LMP1_181-386) was “prevented the interaction of TRAF6 with LMP1 and RANK” and the “TRAF6 binding to LMP1 (AlphaScreen), mean” value (from here on “TRAF6 binding to LMP1 … mean”) (GST-LMP1_181-386) was 4.615. The “TRAF6 binding to LMP1 (AlphaScreen)” value (GST-LMP1_181-386; [2]) was 2.0, the “TRAF6 binding to LMP1 (AlphaScreen)” value (GST-LMP1_181-386; replicate 2) was 6.0 and the “TRAF6 binding to LMP1 (AlphaScreen)” value (GST-LMP1_181-386; replicate 3) was 5.9. The “effect of TRAF6 mutation on binding to CD40 (in words)” value (shortened to “effect … to CD40 (in words)”) (GST-CD40_216-277) was “no impact on TRAF6 binding to CD40”, the “TRAF6 binding to CD40 (AlphaScreen), mean” value (shortened to “TRAF6 binding to CD40 … mean”) (GST-CD40_216-277) was 85.62 and the “TRAF6 binding to CD40 (AlphaScreen)” value (GST-CD40_216-277; [2]) was 56.3. For the same molecule, the “TRAF6 binding to CD40 (AlphaScreen)” value (GST-CD40_216-277; replicate 2) was 84.0 and the “TRAF6 binding to CD40 (AlphaScreen)” value (GST-CD40_216-277; replicate 3) was 116.7.

B2: F471A (protein, UniProt Q9Y4K3 1-522, looked up, variant F471A)
TNF receptor-associated …: B1 TNF receptor-associated … with A392R, F471A
In the case of B2, the “rescue of canonical NF-κB activation” value [1] is reported as “ineffective in rescuing canonical NF-κB activation”, the “effect … to LMP1 (in words)” value (GST-LMP1_181-386) is reported as “complete loss of TRAF6 binding” and the “TRAF6 binding to LMP1 … mean” value (GST-LMP1_181-386) is reported as 5.785. The “TRAF6 binding to LMP1 (AlphaScreen)” value (GST-LMP1_181-386; [2]) was 2.7, the “TRAF6 binding to LMP1 (AlphaScreen)” value (GST-LMP1_181-386; replicate 2) was 7.8 and the “TRAF6 binding to LMP1 (AlphaScreen)” value (GST-LMP1_181-386; replicate 3) was 6.8. The “effect … to CD40 (in words)” value (GST-CD40_216-277) was “complete loss of TRAF6 binding”, the “TRAF6 binding to CD40 … mean” value (GST-CD40_216-277) was 0.6069 and the “TRAF6 binding to CD40 (AlphaScreen)” value (GST-CD40_216-277; [2]) was 0.8. For the same molecule, the “TRAF6 binding to CD40 (AlphaScreen)” value (GST-CD40_216-277; replicate 2) was 0.43 and the “TRAF6 binding to CD40 (AlphaScreen)” value (GST-CD40_216-277; replicate 3) was 0.6.

B3: Y473A (protein, UniProt Q9Y4K3 1-522, looked up, variant Y473A)
TNF receptor-associated …: B1 TNF receptor-associated … with A392R, Y473A
In the case of B3, the “rescue of canonical NF-κB activation” value [1] is reported as “ineffective in rescuing canonical NF-κB activation”, the “effect … to LMP1 (in words)” value (GST-LMP1_181-386) is reported as “complete loss of TRAF6 binding” and the “TRAF6 binding to LMP1 … mean” value (GST-LMP1_181-386) is reported as 1.355. For the same molecule, the “TRAF6 binding to LMP1 (AlphaScreen)” value (GST-LMP1_181-386; [2]) was 0.9, the “TRAF6 binding to LMP1 (AlphaScreen)” value (GST-LMP1_181-386; replicate 2) was 1.6 and the “TRAF6 binding to LMP1 (AlphaScreen)” value (GST-LMP1_181-386; replicate 3) was 1.5. The “effect … to CD40 (in words)” value (GST-CD40_216-277) was “complete loss of TRAF6 binding”, the “TRAF6 binding to CD40 … mean” value (GST-CD40_216-277) was 0.5871 and the “TRAF6 binding to CD40 (AlphaScreen)” value (GST-CD40_216-277; [2]) was 0.7. For the same molecule, the “TRAF6 binding to CD40 (AlphaScreen)” value (GST-CD40_216-277; replicate 2) was 0.5 and the “TRAF6 binding to CD40 (AlphaScreen)” value (GST-CD40_216-277; replicate 3) was 0.5.
